Assay results taken from patent publication US20130224191A1, “NOTUM PROTEIN MODULATORS AND METHODS OF USE” (priority 2010, published 2013).

Target: T1, chimeric human/mouse Notum (Homo sapiens, UniProt Q6P988, A205S/A256S/E196D/E289D/E487K/H276R/H373G/H396Y/K251E/L360Q/L418F/L429M/L483M/M474V/N299S/P379Q/P480Q/Q248L/Q311K/R218K/R307Q/R361W/S193P/T277S/T284N/V280I/V301M/V434F/V452I/Y171H)
T1 construct: human mature Notum protein (residues 19-144) fused to the mouse Notum (mouse residues 150-484); His tag; made in house
T1 sequence (Q6P988 with tags, fused parts or gaps Y171H/S193P/E196D/A205S/R218K/Q248L/K251E/A256S/H276R/T277S/V280I/T284N/E289D/N299S/V301M/R307Q/Q311K/L360Q/R361W/H373G/P379Q/H396Y/L418F/L429M/V434F/V452I/M474V/P480Q/L483M/E487K): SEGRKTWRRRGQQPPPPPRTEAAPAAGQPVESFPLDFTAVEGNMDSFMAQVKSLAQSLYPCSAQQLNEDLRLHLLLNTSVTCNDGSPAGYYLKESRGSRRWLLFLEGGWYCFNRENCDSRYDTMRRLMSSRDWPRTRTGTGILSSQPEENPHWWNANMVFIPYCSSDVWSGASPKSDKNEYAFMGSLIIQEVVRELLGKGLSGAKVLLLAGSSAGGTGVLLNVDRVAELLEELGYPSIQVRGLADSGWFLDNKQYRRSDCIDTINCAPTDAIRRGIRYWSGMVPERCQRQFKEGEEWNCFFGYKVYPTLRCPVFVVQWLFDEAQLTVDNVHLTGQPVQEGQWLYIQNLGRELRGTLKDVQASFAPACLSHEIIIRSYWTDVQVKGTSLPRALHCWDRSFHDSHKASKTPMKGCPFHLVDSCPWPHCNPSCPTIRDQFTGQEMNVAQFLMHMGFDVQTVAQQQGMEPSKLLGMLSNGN
Test: Neutralization of chimeric Notum in 293.TCF assay
Assay type: cell-based
Excerpt: To better understand the structural basis for the interaction of SC2.D2.2 with human Notum, a chimeric Notum protein was fabricated. This approach takes advantage of the fact that the orthologs are structurally related. To that end a chimeric Notum molecule composed of the N terminal of the human mature Notum protein (residues 19-144) fused to the mouse Notum (mouse residues 150-484) (genes both consistent with Example 7) was generated and expressed in a similar manner to that set forth in previous Examples. The BamHI restriction cleavage site in human Notum gene was used for construction of in-frame fusion Notum chimeric protein. An expression vector was then constructed containing the His tagged chimeric Notum sequence.
The chimeric human/mouse Notum protein described in Example 17 was placed into the 293.TCF assay. […] (Note that FIG. 1C would annotate the residue as D129, based upon numbering from the start of the mature Notum protein, whereas the D141 annotation is based upon the consideration of the wild-type human protein precursor).

B1: SC2.D2.2 (antibody, V domains shown)
VH: DVQLVESGGGLVQPGGSRKISCAASGFTFSSYGMHWVRQAPEKGLEWVAYISSSTVTTYYADTVKGRFTISRDNANNTLFLQMTSLRSEDTAMYYCSRQNWDGGYFDVWGAGTTVTVSS
VL: DIVLTQSLASLAVSLGQRATISCRASKSVSSSGYSYMHWYQQKPGQPPKLLIYLASNLESGVPARFSGSGSGTDFTLNIHPVEEEDAATYYCQHSRALPLTFGAGTKLELKR
notes: also called murine SC2.D2.2
With B1 the “neutralization of chimeric Notum activity” value was “can be neutralized”.
